Assays:
[1] = target: human recombinant plasminogen activator inhibitor‐1 (stable PAI‐1 variant 14‐1B) (human) (UniProt P05121)
[2] = target: human recombinant plasminogen activator inhibitor‐1 (stable PAI‐1 variant 14‐1B) (human) (UniProt P05121); remark: listed apart in the source
PN‐1 (human) = PN‐1 (human) (UniProt P07093)
[3] = target: human antithrombin‐III (human) (UniProt P01008)
[4] = target: human α2‐antiplasmin (human) (UniProt P08697)
[5] = target: recombinant human plasminogen activator inhibitor‐2 (human) (UniProt P05120)
[6] = target: human recombinant plasminogen activator inhibitor‐1 (stable PAI‐1 variant 14‐1B) (human) (UniProt P05121); remark: listed apart in the source
[7] = target: endogenous plasma PAI‐1 (human (endogenous in plasma)) (UniProt P05121)
murine PAI‐1 (murine) = murine PAI‐1 (murine) (UniProt P22777)
[8] = target: human recombinant plasminogen activator inhibitor‐1 (stable PAI‐1 variant 14‐1B) (human) (UniProt P05121); experiment: SPR; anti‐PAI‐1 monoclonal antibody (Mab‐1) immobilised on a CM5 Biacore chip, PAI‐1 captured on it, uPA‐S195A variants applied from 25 nM to 48.8 pM; global fit to a 1:1 binding model; repeated three times
[9] = target: human recombinant plasminogen activator inhibitor‐1 (stable PAI‐1 variant 14‐1B) (human) (UniProt P05121); remark: listed apart in the source

uPA‐SPD S195A‐C122A‐N145Q‐Q192K (domain or fragment)
IC50, chromogenic assay: recovery of uPA activity (S‐2444 hydrolysis) from inhibition by PAI‐1 (15 nM PAI‐1, 15 nM human uPA); blocks PAI‐1 + uPA [1]: 3000 nM

uPA‐SPD S195A‐C122A‐N145Q‐A96E (domain or fragment)
IC50, chromogenic assay: recovery of uPA activity (S‐2444 hydrolysis) from inhibition by PAI‐1 (15 nM PAI‐1, 15 nM human uPA); blocks PAI‐1 + uPA [1]: 22 nM

PAItrap (uPA‐S195A‐G37bR‐R217L‐C122A‐N145Q) (domain or fragment)
IC50, chromogenic assay: recovery of uPA activity (S‐2444 hydrolysis) from inhibition by PAI‐1 (15 nM PAI‐1, 15 nM human uPA); blocks PAI‐1 + uPA [1]: 10 nM
IC50 of blocking PAI‐1 inhibition on tPA (Fig. S1); blocks PAI‐1 + tPA [2]: 14 nM
IC50, chromogenic assay: recovery of uPA activity (S2444) from inhibition by 15 nM PN‐1, 15 nM uPA, 37°C; blocks PN‐1 + uPA (PN‐1 (human)): 16000 nM
IC50, chromogenic assay: remaining thrombin activity (Gly‐Arg‐p‐nitroanilide) with 30 nM antithrombin‐III and 30 nM human α‐thrombin, 37°C; blocks antithrombin‐III + α‐thrombin [3]: 40000 nM
IC50, chromogenic assay: plasmin activity (Gly‐Arg‐p‐nitroanilide) with 15 nM α2‐antiplasmin and 15 nM human plasmin; blocks α2‐antiplasmin + plasmin [4]: > 50000 nM
IC50, chromogenic assay: recovery of uPA activity (S2444) from inhibition by 15 nM PAI‐2, 15 nM uPA, 37°C; blocks PAI‐2 + uPA [5]: 14000 nM
clot lysis time in human platelet‐poor plasma: 2.4 nM tPA, 0.9 nM PAI‐1, 6.5 nM PAItrap; blocks PAI‐1 + tPA [6]: 6 min
time to 50% clot lysis in platelet‐free plasma without exogenous PAI‐1: 100 pM tPA, 20 or 200 nM PAItrap (96 min without PAItrap); blocks PAI‐1 + tPA [7]: 68 min
IC50, chromogenic assay similar to that used for human PAI‐1; inhibition of murine PAI‐1 (murine PAI‐1 (murine)): 14 nM
Kd [8]: 0.15 nM
koff [8]: 0.000627 s⁻¹
kon [8]: 4.11e+06 M⁻¹ s⁻¹

uPA‐SPD S195A‐C122A‐N145Q‐Y151F (domain or fragment)
IC50, chromogenic assay: recovery of uPA activity (S‐2444 hydrolysis) from inhibition by PAI‐1 (15 nM PAI‐1, 15 nM human uPA); blocks PAI‐1 + uPA [1]: 1000 nM

uPA‐SPD S195A‐C122A‐N145Q‐G37bR‐Y60bK (domain or fragment)
IC50, chromogenic assay: recovery of uPA activity (S‐2444 hydrolysis) from inhibition by PAI‐1 (15 nM PAI‐1, 15 nM human uPA); blocks PAI‐1 + uPA [1]: 90 nM
Kd [8]: 0.83 nM
koff [8]: 0.00114 s⁻¹
kon [8]: 2.35e+06 M⁻¹ s⁻¹

uPA‐SPD S195A‐C122A‐N145Q (domain or fragment)
IC50, chromogenic assay: recovery of uPA activity (S‐2444 hydrolysis) from inhibition by PAI‐1 (15 nM PAI‐1, 15 nM human uPA); blocks PAI‐1 + uPA [1]: 109 nM
clot lysis time in human platelet‐poor plasma: 2.4 nM tPA, 0.9 nM PAI‐1, 6.5 nM uPA‐S195A; blocks PAI‐1 + tPA [9]: 39 min
Kd [8]: 1.57 nM
koff [8]: 0.00121 s⁻¹
kon [8]: 776000 M⁻¹ s⁻¹

uPA‐SPD S195A‐C122A‐N145Q‐G37bR‐R217L‐A96E (domain or fragment)
IC50, chromogenic assay: recovery of uPA activity (S‐2444 hydrolysis) from inhibition by PAI‐1 (15 nM PAI‐1, 15 nM human uPA); blocks PAI‐1 + uPA [1]: 30 nM

uPA‐SPD S195A‐C122A‐N145Q‐G37bR (domain or fragment)
IC50, chromogenic assay: recovery of uPA activity (S‐2444 hydrolysis) from inhibition by PAI‐1 (15 nM PAI‐1, 15 nM human uPA); blocks PAI‐1 + uPA [1]: 25 nM
Kd [8]: 0.32 nM
koff [8]: 0.000698 s⁻¹
kon [8]: 2.3e+06 M⁻¹ s⁻¹

uPA‐SPD S195A‐C122A‐N145Q‐R217L (domain or fragment)
IC50, chromogenic assay: recovery of uPA activity (S‐2444 hydrolysis) from inhibition by PAI‐1 (15 nM PAI‐1, 15 nM human uPA); blocks PAI‐1 + uPA [1]: 48 nM
Kd [8]: 0.63 nM
koff [8]: 0.00084 s⁻¹
kon [8]: 1.33e+06 M⁻¹ s⁻¹

uPA‐SPD S195A‐C122A‐N145Q‐Y149R (domain or fragment)
IC50, chromogenic assay: recovery of uPA activity (S‐2444 hydrolysis) from inhibition by PAI‐1 (15 nM PAI‐1, 15 nM human uPA); blocks PAI‐1 + uPA [1]: > 3000 nM

uPA‐SPD S195A‐C122A‐N145Q‐G37bR‐Y60bK‐R217L (domain or fragment)
IC50, chromogenic assay: recovery of uPA activity (S‐2444 hydrolysis) from inhibition by PAI‐1 (15 nM PAI‐1, 15 nM human uPA); blocks PAI‐1 + uPA [1]: 26 nM

Source: paper PMC4876229
